# Data published in patent publication US20250066503A1, “CELL INJURY INDUCING THERAPEUTIC DRUG FOR USE IN CANCER THERAPY” (CHUGAI SEIYAKU KABUSHIKI KAISHA, priority 2016, published 2025).
# B1: H0610-G1dh/none-Hi-Kn010G3/L0154-k0 (antibody, V domains shown)
# VH: QVQLVQSGAEVKKPGASVKVSCKASGYTFTDYEMHWIRQPPGQGLEWIGAIDGKTPDTAYSQKFKGRVTLTADKSTSTAYMELSSLTSEDTAVYYCTRFYSYTYWGQGTLVTVSS
# VL: DIVMTQSPLSLPVTPGEPASISCRSSQSLVHSNRNTYLHWYQQKPGQAPRLLIYKVSNRFSGVPDRFSGSGSGTDFTLKISRVEAEDVGVYYCIQGTQVPYTFGQGTKLEIK
# notes: one-arm
# B2: H0610-G1dh/none-Hi-Kn010G3/L0167-k0 (antibody, V domains shown)
# VH: QVQLVQSGAEVKKPGASVKVSCKASGYTFTDYEMHWIRQPPGQGLEWIGAIDGKTPDTAYSQKFKGRVTLTADKSTSTAYMELSSLTSEDTAVYYCTRFYSYTYWGQGTLVTVSS
# VL: DIVMTQSPLSLPVTPGEPASISCRSSQSLVHSNRNTYLHWYQQKPGQAPRLLIYKVSNRFSGVPDRFSGSGSGTDFTLKISRVEAEDVGVYYCGQSTQVPYTFGQGTKLEIK
# notes: one-arm
# B3: H0610-G1dh/none-Hi-Kn010G3/L0200-k0 (antibody, V domains shown)
# VH: QVQLVQSGAEVKKPGASVKVSCKASGYTFTDYEMHWIRQPPGQGLEWIGAIDGKTPDTAYSQKFKGRVTLTADKSTSTAYMELSSLTSEDTAVYYCTRFYSYTYWGQGTLVTVSS
# VL: DIVMTQSPLSLPVTPGEPASISCRPSQSPVHSNRNTYLHWYQQKPGQAPRLLIYKVSNRFSGVPDRFSGSGSGTDFTLKISRVEAEDVGVYYCGQGTQVPYTFGQGTKLEIK
# notes: one-arm
# B4: H0610-G1dh/none-Hi-Kn010G3/L0160-k0 (antibody, V domains shown)
# VH: QVQLVQSGAEVKKPGASVKVSCKASGYTFTDYEMHWIRQPPGQGLEWIGAIDGKTPDTAYSQKFKGRVTLTADKSTSTAYMELSSLTSEDTAVYYCTRFYSYTYWGQGTLVTVSS
# VL: DIVMTQSPLSLPVTPGEPASISCRSSQSLVHSNRNTYLHWYQQKPGQAPRLLIYKVSNRFSGVPDRFSGSGSGTDFTLKISRVEAEDVGVYYCTQGTQVPYTFGQGTKLEIK
# notes: one-arm
# B5: H0610-G1dh/none-Hi-Kn010G3/L0202-k0 (antibody, V domains shown)
# VH: QVQLVQSGAEVKKPGASVKVSCKASGYTFTDYEMHWIRQPPGQGLEWIGAIDGKTPDTAYSQKFKGRVTLTADKSTSTAYMELSSLTSEDTAVYYCTRFYSYTYWGQGTLVTVSS
# VL: DIVMTQSPLSLPVTPGEPASISCRSSQSPVHSNRWTYLHWYQQKPGQAPRLLIYKVSNRFSGVPDRFSGSGSGTDFTLKISRVEAEDVGVYYCGQGTQVPYTFGQGTKLEIK
# notes: one-arm
# B6: H0610-G1dh/none-Hi-Kn010G3/L0180-k0 (antibody, V domains shown)
# VH: QVQLVQSGAEVKKPGASVKVSCKASGYTFTDYEMHWIRQPPGQGLEWIGAIDGKTPDTAYSQKFKGRVTLTADKSTSTAYMELSSLTSEDTAVYYCTRFYSYTYWGQGTLVTVSS
# VL: DIVMTQSPLSLPVTPGEPASISCRSSQSLVHSNRNTYLHWYQQKPGQAPRLLIYKVSNRFSGVPDRFSGSGSGTDFTLKISRVEAEDVGVYYCGQGTQNPYTFGQGTKLEIK
# notes: one-arm
# B7: H0610-G1dh/none-Hi-Kn010G3/L0161-k0 (antibody, V domains shown)
# VH: QVQLVQSGAEVKKPGASVKVSCKASGYTFTDYEMHWIRQPPGQGLEWIGAIDGKTPDTAYSQKFKGRVTLTADKSTSTAYMELSSLTSEDTAVYYCTRFYSYTYWGQGTLVTVSS
# VL: DIVMTQSPLSLPVTPGEPASISCRSSQSLVHSNRNTYLHWYQQKPGQAPRLLIYKVSNRFSGVPDRFSGSGSGTDFTLKISRVEAEDVGVYYCVQGTQVPYTFGQGTKLEIK
# notes: one-arm
# B8: H0610-G1dh/none-Hi-Kn010G3/L0213-k0 (antibody, V domains shown)
# VH: QVQLVQSGAEVKKPGASVKVSCKASGYTFTDYEMHWIRQPPGQGLEWIGAIDGKTPDTAYSQKFKGRVTLTADKSTSTAYMELSSLTSEDTAVYYCTRFYSYTYWGQGTLVTVSS
# VL: DIVMTQSPLSLPVTPGEPASISCRSSQSPVHSNRNTYIHWYQQKPGQAPRLLIYKVSNRFRGVPDRFSGSGSGTDFTLKISRVEAEDVGVYYCGQGTQVPYTFGQGTKLEIK
# notes: one-arm
# B9: H0610-G1dh/none-Hi-Kn010G3/L0215-k0 (antibody, V domains shown)
# VH: QVQLVQSGAEVKKPGASVKVSCKASGYTFTDYEMHWIRQPPGQGLEWIGAIDGKTPDTAYSQKFKGRVTLTADKSTSTAYMELSSLTSEDTAVYYCTRFYSYTYWGQGTLVTVSS
# VL: DIVMTQSPLSLPVTPGEPASISCRSSQPPVHSNRNTYIHWYQQKPGQAPRLLIYKVSNRFSGVPDRFSGSGSGTDFTLKISRVEAEDVGVYYCGQGTQVPYTFGQGTKLEIK
# notes: one-arm
# B10: H0610-G1dh/none-Hi-Kn010G3/L0205-k0 (antibody, V domains shown)
# VH: QVQLVQSGAEVKKPGASVKVSCKASGYTFTDYEMHWIRQPPGQGLEWIGAIDGKTPDTAYSQKFKGRVTLTADKSTSTAYMELSSLTSEDTAVYYCTRFYSYTYWGQGTLVTVSS
# VL: DIVMTQSPLSLPVTPGEPASISCRSSQSPVHSNRNTYLHWYQQKPGQAPRLLIYKVSNRFWGVPDRFSGSGSGTDFTLKISRVEAEDVGVYYCGQGTQVPYTFGQGTKLEIK
# notes: one-arm
# B11: H0610-G1dh/none-Hi-Kn010G3/L0216-k0 (antibody, V domains shown)
# VH: QVQLVQSGAEVKKPGASVKVSCKASGYTFTDYEMHWIRQPPGQGLEWIGAIDGKTPDTAYSQKFKGRVTLTADKSTSTAYMELSSLTSEDTAVYYCTRFYSYTYWGQGTLVTVSS
# VL: DIVMTQSPLSLPVTPGEPASISCRSSQPLVHSNRNTYLHWYQQKPGQAPRLLIYKVSNRFRGVPDRFSGSGSGTDFTLKISRVEAEDVGVYYCGQGTQVPYTFGQGTKLEIK
# notes: one-arm
# B12: H0610-G1dh/none-Hi-Kn010G3/L0186-k0 (antibody, V domains shown)
# VH: QVQLVQSGAEVKKPGASVKVSCKASGYTFTDYEMHWIRQPPGQGLEWIGAIDGKTPDTAYSQKFKGRVTLTADKSTSTAYMELSSLTSEDTAVYYCTRFYSYTYWGQGTLVTVSS
# VL: DIVMTQSPLSLPVTPGEPASISCRSSQSLVHSNRNTYLHWYQQKPGQAPRLLIYKVSNRFSGVPDRFSGSGSGTDFTLKISRVEAEDVGVYYCGQGTQWPYTFGQGTKLEIK
# notes: one-arm
# B13: H0610-G1dh/none-Hi-Kn010G3/L0187-k0 (antibody, V domains shown)
# VH: QVQLVQSGAEVKKPGASVKVSCKASGYTFTDYEMHWIRQPPGQGLEWIGAIDGKTPDTAYSQKFKGRVTLTADKSTSTAYMELSSLTSEDTAVYYCTRFYSYTYWGQGTLVTVSS
# VL: DIVMTQSPLSLPVTPGEPASISCRSSQSLVHSNRNTYLHWYQQKPGQAPRLLIYKVSNRFSGVPDRFSGSGSGTDFTLKISRVEAEDVGVYYCGQGTQYPYTFGQGTKLEIK
# notes: one-arm
# B14: H0610-G1dh/none-Hi-Kn010G3/L0181-k0 (antibody, V domains shown)
# VH: QVQLVQSGAEVKKPGASVKVSCKASGYTFTDYEMHWIRQPPGQGLEWIGAIDGKTPDTAYSQKFKGRVTLTADKSTSTAYMELSSLTSEDTAVYYCTRFYSYTYWGQGTLVTVSS
# VL: DIVMTQSPLSLPVTPGEPASISCRSSQSLVHSNRNTYLHWYQQKPGQAPRLLIYKVSNRFSGVPDRFSGSGSGTDFTLKISRVEAEDVGVYYCGQGTQPPYTFGQGTKLEIK
# notes: one-arm
# B15: H0610-G1dh/none-Hi-Kn010G3/L0217-k0 (antibody, V domains shown)
# VH: QVQLVQSGAEVKKPGASVKVSCKASGYTFTDYEMHWIRQPPGQGLEWIGAIDGKTPDTAYSQKFKGRVTLTADKSTSTAYMELSSLTSEDTAVYYCTRFYSYTYWGQGTLVTVSS
# VL: DIVMTQSPLSLPVTPGEPASISCRPSQSLVHSNRNTYLHWYQQKPGQAPRLLIYKVSNRFRGVPDRFSGSGSGTDFTLKISRVEAEDVGVYYCGQGTQVPYTFGQGTKLEIK
# notes: one-arm
# B16: H0610-G1dh/none-Hi-Kn010G3/L0168-k0 (antibody, V domains shown)
# VH: QVQLVQSGAEVKKPGASVKVSCKASGYTFTDYEMHWIRQPPGQGLEWIGAIDGKTPDTAYSQKFKGRVTLTADKSTSTAYMELSSLTSEDTAVYYCTRFYSYTYWGQGTLVTVSS
# VL: DIVMTQSPLSLPVTPGEPASISCRSSQSLVHSNRNTYLHWYQQKPGQAPRLLIYKVSNRFSGVPDRFSGSGSGTDFTLKISRVEAEDVGVYYCGQTTQVPYTFGQGTKLEIK
# notes: one-arm
# B17: H0610-G1dh/none-Hi-Kn010G3/L0214-k0 (antibody, V domains shown)
# VH: QVQLVQSGAEVKKPGASVKVSCKASGYTFTDYEMHWIRQPPGQGLEWIGAIDGKTPDTAYSQKFKGRVTLTADKSTSTAYMELSSLTSEDTAVYYCTRFYSYTYWGQGTLVTVSS
# VL: DIVMTQSPLSLPVTPGEPASISCRSSQPPVHSNRNTYLHWYQQKPGQAPRLLIYKVSNRFRGVPDRFSGSGSGTDFTLKISRVEAEDVGVYYCGQGTQVPYTFGQGTKLEIK
# notes: one-arm
# B18: H0610-G1dh/none-Hi-Kn010G3/L0155-k0 (antibody, V domains shown)
# VH: QVQLVQSGAEVKKPGASVKVSCKASGYTFTDYEMHWIRQPPGQGLEWIGAIDGKTPDTAYSQKFKGRVTLTADKSTSTAYMELSSLTSEDTAVYYCTRFYSYTYWGQGTLVTVSS
# VL: DIVMTQSPLSLPVTPGEPASISCRSSQSLVHSNRNTYLHWYQQKPGQAPRLLIYKVSNRFSGVPDRFSGSGSGTDFTLKISRVEAEDVGVYYCLQGTQVPYTFGQGTKLEIK
# notes: one-arm
# B19: H0610-G1dh/none-Hi-Kn010G3/L0163-k0 (antibody, V domains shown)
# VH: QVQLVQSGAEVKKPGASVKVSCKASGYTFTDYEMHWIRQPPGQGLEWIGAIDGKTPDTAYSQKFKGRVTLTADKSTSTAYMELSSLTSEDTAVYYCTRFYSYTYWGQGTLVTVSS
# VL: DIVMTQSPLSLPVTPGEPASISCRSSQSLVHSNRNTYLHWYQQKPGQAPRLLIYKVSNRFSGVPDRFSGSGSGTDFTLKISRVEAEDVGVYYCYQGTQVPYTFGQGTKLEIK
# notes: one-arm
# B20: H0610-G1dh/none-Hi-Kn010G3/L0175-k0 (antibody, V domains shown)
# VH: QVQLVQSGAEVKKPGASVKVSCKASGYTFTDYEMHWIRQPPGQGLEWIGAIDGKTPDTAYSQKFKGRVTLTADKSTSTAYMELSSLTSEDTAVYYCTRFYSYTYWGQGTLVTVSS
# VL: DIVMTQSPLSLPVTPGEPASISCRSSQSLVHSNRNTYLHWYQQKPGQAPRLLIYKVSNRFSGVPDRFSGSGSGTDFTLKISRVEAEDVGVYYCGQGTQHPYTFGQGTKLEIK
# notes: one-arm
# B21: H0610-G1dh/none-Hi-Kn010G3/L0173-k0 (antibody, V domains shown)
# VH: QVQLVQSGAEVKKPGASVKVSCKASGYTFTDYEMHWIRQPPGQGLEWIGAIDGKTPDTAYSQKFKGRVTLTADKSTSTAYMELSSLTSEDTAVYYCTRFYSYTYWGQGTLVTVSS
# VL: DIVMTQSPLSLPVTPGEPASISCRSSQSLVHSNRNTYLHWYQQKPGQAPRLLIYKVSNRFSGVPDRFSGSGSGTDFTLKISRVEAEDVGVYYCGQGTQFPYTFGQGTKLEIK
# notes: one-arm
# B22: H0610-G1dh/none-Hi-Kn010G3/L0157-k0 (antibody, V domains shown)
# VH: QVQLVQSGAEVKKPGASVKVSCKASGYTFTDYEMHWIRQPPGQGLEWIGAIDGKTPDTAYSQKFKGRVTLTADKSTSTAYMELSSLTSEDTAVYYCTRFYSYTYWGQGTLVTVSS
# VL: DIVMTQSPLSLPVTPGEPASISCRSSQSLVHSNRNTYLHWYQQKPGQAPRLLIYKVSNRFSGVPDRFSGSGSGTDFTLKISRVEAEDVGVYYCNQGTQVPYTFGQGTKLEIK
# notes: one-arm
# Target: T1, human GPC3 (human, UniProt P51654 25-563)
# T1 construct: range 25-563; soluble analyte; also called soluble human GPC3; glypican 3
# T1 sequence (P51654 25-563 limits assumed): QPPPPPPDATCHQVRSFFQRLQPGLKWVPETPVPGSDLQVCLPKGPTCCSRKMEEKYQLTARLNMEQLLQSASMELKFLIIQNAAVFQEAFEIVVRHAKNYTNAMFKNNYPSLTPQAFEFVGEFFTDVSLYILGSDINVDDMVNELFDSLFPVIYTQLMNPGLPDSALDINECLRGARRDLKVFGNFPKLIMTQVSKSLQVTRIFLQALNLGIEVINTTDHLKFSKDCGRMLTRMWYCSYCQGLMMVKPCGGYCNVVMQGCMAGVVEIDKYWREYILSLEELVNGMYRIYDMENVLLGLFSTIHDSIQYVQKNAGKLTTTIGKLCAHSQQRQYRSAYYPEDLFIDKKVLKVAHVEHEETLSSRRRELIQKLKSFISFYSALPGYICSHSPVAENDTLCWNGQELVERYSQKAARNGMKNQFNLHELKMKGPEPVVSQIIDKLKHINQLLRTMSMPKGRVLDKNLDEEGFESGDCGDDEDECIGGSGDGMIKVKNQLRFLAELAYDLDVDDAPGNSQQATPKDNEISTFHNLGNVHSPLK
# Assay: SPR
row,Binder,Kd [nM]
1,B1,1.01
2,B2,0.211
3,B3,1.04
4,B4,2.12
5,B5,1.22
6,B6,4.48
7,B7,0.973
8,B8,1.25
9,B9,1.64
10,B10,1.01
11,B11,1.86
12,B12,1.08
13,B13,4.92
14,B14,3.51
15,B15,1.79
16,B16,0.699
17,B17,0.657
18,B18,1.28
19,B19,3.38
20,B20,3.84
21,B21,2.83
22,B22,2.6
